The results in this text go back to the supplement of paper PMC9112550, “Optimization of the antimicrobial peptide Bac7 by deep mutational scanning” (BMC Biology, 2022).
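Note: peptides expressed intracellularly from a pBAD plasmid library in pooled LB shake-flask culture, induced with 0.3% L-arabinose, DNA abundance read by NGS, three biological replicates, DESeq2 with apeglm shrinkage.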

For the data set, the system named is Escherichia coli TOP10. Put plainly: shrunken log2 fold change of peptide-encoding DNA abundance (4.5 h post-induction vs induction); higher = less antimicrobial activity (less host growth inhibition). The settings on record: time post-induction: 4.5 h; library: site-saturation at positions 5, 18, 19, 20.
Turning to RRIRIRPPRLPRPRPRPKIMPRP, the “shrunken log2 fold change” value was -0.549.

In the case of RRIRERPPRLPRPRPRPYVKPRP, the “shrunken log2 fold change” value was determined as 0.04.

For RRIRSRPPRLPRPRPRPTWAPRP, the “shrunken log2 fold change” value is 0.518.

On to RRIRKRPPRLPRPRPRPVYHPRP, for which the “shrunken log2 fold change” value turned out to be 0.0002.

With RRIRHRPPRLPRPRPRPSSEPRP, the “shrunken log2 fold change” value was -0.102.

On to RRIRTRPPRLPRPRPRPNFWPRP, for which the “shrunken log2 fold change” value was found to be 0.31.

As for RRIRGRPPRLPRPRPRPVYWPRP, the “shrunken log2 fold change” value turned out to be 1.38.

Consider RRIRYRPPRLPRPRPRPFDLPRP, for which the “shrunken log2 fold change” value was -0.967.

As to RRIRERPPRLPRPRPRPCGDPRP, the “shrunken log2 fold change” value was -0.231.

For RRIRCRPPRLPRPRPRPHAIPRP, the “shrunken log2 fold change” value was -0.139.

For RRIRFRPPRLPRPRPRPPGPPRP, the “shrunken log2 fold change” value stood at 0.897.

Consider RRIRNRPPRLPRPRPRPVYPPRP, for which the “shrunken log2 fold change” value is -0.341.

For RRIRYRPPRLPRPRPRPAVTPRP, the “shrunken log2 fold change” value was -3.6.

RRIRVRPPRLPRPRPRPSIHPRP: the “shrunken log2 fold change” value is -0.755.

In the case of RRIRPRPPRLPRPRPRPHHLPRP, the “shrunken log2 fold change” value was -0.0444.

For the sequence RRIRDRPPRLPRPRPRPPLCPRP, the “shrunken log2 fold change” value was found to be 0.223.

As for RRIRFRPPRLPRPRPRPDSDPRP, the “shrunken log2 fold change” value was -0.0137.

With RRIRNRPPRLPRPRPRPQAAPRP, the “shrunken log2 fold change” value was -0.0424.

With RRIRQRPPRLPRPRPRPWRCPRP, the “shrunken log2 fold change” value is -0.149.

Turning to RRIRIRPPRLPRPRPRPGLLPRP, the “shrunken log2 fold change” value was -0.0591.

As for RRIRMRPPRLPRPRPRPFMYPRP, the “shrunken log2 fold change” value is -0.219.

With RRIRRRPPRLPRPRPRPWLIPRP, the “shrunken log2 fold change” value was -0.319.

As for RRIRSRPPRLPRPRPRPTCKPRP, the “shrunken log2 fold change” value was determined as 0.107.

In the case of RRIRPRPPRLPRPRPRPTLNPRP, the “shrunken log2 fold change” value was 0.0863.

Regarding RRIRSRPPRLPRPRPRPKARPRP, the “shrunken log2 fold change” value is 0.0932.

In the case of RRIRYRPPRLPRPRPRPHPSPRP, the “shrunken log2 fold change” value was found to be 0.0761.

Take RRIRSRPPRLPRPRPRPFNSPRP: the “shrunken log2 fold change” value was -0.116.

Turning to RRIRKRPPRLPRPRPRPWNHPRP, the “shrunken log2 fold change” value was -0.172.

For the sequence RRIRDRPPRLPRPRPRPGAMPRP, the “shrunken log2 fold change” value amounted to 0.408.

As to RRIRHRPPRLPRPRPRPPTWPRP, the “shrunken log2 fold change” value is 0.0706.

RRIRARPPRLPRPRPRPQHEPRP: the “shrunken log2 fold change” value stood at 0.0966.

Consider RRIRQRPPRLPRPRPRPPNVPRP, for which the “shrunken log2 fold change” value was -0.0755.

Take RRIRCRPPRLPRPRPRPLAEPRP: the “shrunken log2 fold change” value came out at 0.242.

Take RRIRCRPPRLPRPRPRPDHFPRP: the “shrunken log2 fold change” value is -0.175.

With RRIRWRPPRLPRPRPRPKYPPRP, the “shrunken log2 fold change” value was -0.582.

RRIRLRPPRLPRPRPRPYFGPRP: the “shrunken log2 fold change” value was -0.218.

As for RRIRTRPPRLPRPRPRPIKWPRP, the “shrunken log2 fold change” value turned out to be 0.0186.

In the case of RRIRTRPPRLPRPRPRPLATPRP, the “shrunken log2 fold change” value is 0.0927.

Regarding RRIRMRPPRLPRPRPRPKKRPRP, the “shrunken log2 fold change” value was determined as 2.01.

Consider RRIRTRPPRLPRPRPRPMRNPRP, for which the “shrunken log2 fold change” value was 0.356.

Take RRIRARPPRLPRPRPRPCNDPRP: the “shrunken log2 fold change” value was -0.0678.

With RRIRSRPPRLPRPRPRPEYIPRP, the “shrunken log2 fold change” value is -0.0603.

Consider RRIRVRPPRLPRPRPRPYVGPRP, for which the “shrunken log2 fold change” value is -0.0869.

Take RRIRMRPPRLPRPRPRPICEPRP: the “shrunken log2 fold change” value turned out to be 0.241.

Regarding RRIRQRPPRLPRPRPRPDPPPRP, the “shrunken log2 fold change” value stood at 0.316.

RRIRFRPPRLPRPRPRPICCPRP: the “shrunken log2 fold change” value was -0.134.

As for RRIRMRPPRLPRPRPRPSIRPRP, the “shrunken log2 fold change” value was determined as 0.0426.

In the case of RRIRIRPPRLPRPRPRPSWAPRP, the “shrunken log2 fold change” value was -0.0867.

For RRIRNRPPRLPRPRPRPMCWPRP, the “shrunken log2 fold change” value was found to be 0.327.

On to RRIRHRPPRLPRPRPRPWADPRP, for which the “shrunken log2 fold change” value is -0.36.

In the case of RRIRARPPRLPRPRPRPGEIPRP, the “shrunken log2 fold change” value is 0.599.

In the case of RRIRGRPPRLPRPRPRPVRFPRP, the “shrunken log2 fold change” value was 0.685.

Turning to RRIRHRPPRLPRPRPRPNNAPRP, the “shrunken log2 fold change” value was -0.11.

For RRIRIRPPRLPRPRPRPECIPRP, the “shrunken log2 fold change” value is -0.0632.

With RRIRCRPPRLPRPRPRPPPWPRP, the “shrunken log2 fold change” value is 1.06.

With RRIRCRPPRLPRPRPRPKEGPRP, the “shrunken log2 fold change” value came to 0.201.

Turning to RRIRARPPRLPRPRPRPLRMPRP, the “shrunken log2 fold change” value was found to be 0.655.

On to RRIRTRPPRLPRPRPRPCNEPRP, for which the “shrunken log2 fold change” value was -0.173.

Take RRIRLRPPRLPRPRPRPSLAPRP: the “shrunken log2 fold change” value was 0.13.

On to RRIRSRPPRLPRPRPRPASCPRP, for which the “shrunken log2 fold change” value amounted to 0.131.

On to RRIRCRPPRLPRPRPRPVSIPRP, for which the “shrunken log2 fold change” value was -0.549.

As to RRIRVRPPRLPRPRPRPDFGPRP, the “shrunken log2 fold change” value is -0.0183.

Consider RRIRQRPPRLPRPRPRPYSQPRP, for which the “shrunken log2 fold change” value is -0.195.

As for RRIRMRPPRLPRPRPRPCRDPRP, the “shrunken log2 fold change” value is 0.244.

RRIRARPPRLPRPRPRPRMTPRP: the “shrunken log2 fold change” value was determined as 1.04.

Turning to RRIRCRPPRLPRPRPRPYGVPRP, the “shrunken log2 fold change” value is -0.159.

Regarding RRIRGRPPRLPRPRPRPEYIPRP, the “shrunken log2 fold change” value worked out at 0.252.

As for RRIRQRPPRLPRPRPRPNFWPRP, the “shrunken log2 fold change” value was -0.00668.

Turning to RRIRSRPPRLPRPRPRPNGEPRP, the “shrunken log2 fold change” value is 0.0431.

For RRIRCRPPRLPRPRPRPRCAPRP, the “shrunken log2 fold change” value came to 0.346.

For RRIRYRPPRLPRPRPRPIENPRP, the “shrunken log2 fold change” value is -0.0122.

Turning to RRIRSRPPRLPRPRPRPPWWPRP, the “shrunken log2 fold change” value came to 0.828.

Turning to RRIRFRPPRLPRPRPRPCYAPRP, the “shrunken log2 fold change” value is -0.618.

With RRIRPRPPRLPRPRPRPCNKPRP, the “shrunken log2 fold change” value was -0.102.

With RRIRNRPPRLPRPRPRPTATPRP, the “shrunken log2 fold change” value turned out to be 0.433.

For the sequence RRIRHRPPRLPRPRPRPLYNPRP, the “shrunken log2 fold change” value was -0.459.

Consider RRIRERPPRLPRPRPRPAPTPRP, for which the “shrunken log2 fold change” value was 0.199.

As to RRIRMRPPRLPRPRPRPIAIPRP, the “shrunken log2 fold change” value came to 0.226.

On to RRIRERPPRLPRPRPRPWMRPRP, for which the “shrunken log2 fold change” value turned out to be 0.079.

For RRIRSRPPRLPRPRPRPDLRPRP, the “shrunken log2 fold change” value was determined as 0.248.

As to RRIRLRPPRLPRPRPRPCTQPRP, the “shrunken log2 fold change” value was -0.174.

Consider RRIRRRPPRLPRPRPRPSSIPRP, for which the “shrunken log2 fold change” value was -0.485.

On to RRIRWRPPRLPRPRPRPFPWPRP, for which the “shrunken log2 fold change” value was -0.0524.

Consider RRIRCRPPRLPRPRPRPSGFPRP, for which the “shrunken log2 fold change” value is -0.218.

For the sequence RRIRSRPPRLPRPRPRPRTLPRP, the “shrunken log2 fold change” value was 0.128.

With RRIRSRPPRLPRPRPRPIEEPRP, the “shrunken log2 fold change” value was found to be 0.0156.

As for RRIRYRPPRLPRPRPRPELSPRP, the “shrunken log2 fold change” value amounted to 0.0544.

Take RRIRKRPPRLPRPRPRPNFDPRP: the “shrunken log2 fold change” value is 0.367.

Consider RRIRGRPPRLPRPRPRPSMMPRP, for which the “shrunken log2 fold change” value turned out to be 0.0755.

On to RRIRERPPRLPRPRPRPLYVPRP, for which the “shrunken log2 fold change” value is -0.939.

For the sequence RRIRIRPPRLPRPRPRPPSGPRP, the “shrunken log2 fold change” value is 0.537.

RRIRMRPPRLPRPRPRPPWYPRP: the “shrunken log2 fold change” value amounted to 0.117.

With RRIRLRPPRLPRPRPRPFWYPRP, the “shrunken log2 fold change” value is -0.0126.

RRIRDRPPRLPRPRPRPPFYPRP: the “shrunken log2 fold change” value is -0.213.

Regarding RRIRHRPPRLPRPRPRPHRFPRP, the “shrunken log2 fold change” value was -0.162.

In the case of RRIRRRPPRLPRPRPRPHGHPRP, the “shrunken log2 fold change” value stood at 0.224.

Regarding RRIRTRPPRLPRPRPRPAWDPRP, the “shrunken log2 fold change” value turned out to be 0.454.

Take RRIRVRPPRLPRPRPRPNSQPRP: the “shrunken log2 fold change” value was -0.131.

RRIRFRPPRLPRPRPRPLKWPRP: the “shrunken log2 fold change” value is -0.13.

In the case of RRIRVRPPRLPRPRPRPTNNPRP, the “shrunken log2 fold change” value was -0.398.

With RRIRRRPPRLPRPRPRPQWGPRP, the “shrunken log2 fold change” value stood at 0.323.

As for RRIRQRPPRLPRPRPRPPNMPRP, the “shrunken log2 fold change” value is -0.089.

As for RRIRMRPPRLPRPRPRPWVKPRP, the “shrunken log2 fold change” value was -0.00556.

As for RRIRERPPRLPRPRPRPDSNPRP, the “shrunken log2 fold change” value is -0.00994.

RRIRQRPPRLPRPRPRPCFIPRP: the “shrunken log2 fold change” value was -0.353.

With RRIRNRPPRLPRPRPRPRHIPRP, the “shrunken log2 fold change” value was -0.0233.

Consider RRIRGRPPRLPRPRPRPVEGPRP, for which the “shrunken log2 fold change” value was 0.305.

As to RRIRARPPRLPRPRPRPIPHPRP, the “shrunken log2 fold change” value came out at 0.0126.

For the sequence RRIRCRPPRLPRPRPRPHSHPRP, the “shrunken log2 fold change” value was -0.307.

Take RRIRMRPPRLPRPRPRPTKLPRP: the “shrunken log2 fold change” value amounted to 0.287.

For RRIRHRPPRLPRPRPRPFQAPRP, the “shrunken log2 fold change” value is -0.312.

As for RRIRVRPPRLPRPRPRPKKVPRP, the “shrunken log2 fold change” value is -0.11.

As for RRIRIRPPRLPRPRPRPSRHPRP, the “shrunken log2 fold change” value is -0.384.

Regarding RRIRCRPPRLPRPRPRPRFPPRP, the “shrunken log2 fold change” value is -0.0867.

For the sequence RRIRERPPRLPRPRPRPTHTPRP, the “shrunken log2 fold change” value is -0.409.

On to RRIRFRPPRLPRPRPRPSWTPRP, for which the “shrunken log2 fold change” value is -0.561.

Consider RRIRWRPPRLPRPRPRPYFYPRP, for which the “shrunken log2 fold change” value was -0.679.

Consider RRIRPRPPRLPRPRPRPNNSPRP, for which the “shrunken log2 fold change” value was -0.488.

Regarding RRIRLRPPRLPRPRPRPICQPRP, the “shrunken log2 fold change” value was found to be 0.0108.

In the case of RRIRDRPPRLPRPRPRPSGSPRP, the “shrunken log2 fold change” value is -0.00469.

Turning to RRIRIRPPRLPRPRPRPLNYPRP, the “shrunken log2 fold change” value is -0.384.

RRIRTRPPRLPRPRPRPIESPRP: the “shrunken log2 fold change” value turned out to be 0.0133.

For the sequence RRIRARPPRLPRPRPRPCIWPRP, the “shrunken log2 fold change” value was determined as 0.118.

Turning to RRIRQRPPRLPRPRPRPDAIPRP, the “shrunken log2 fold change” value is 0.0472.

Turning to RRIRIRPPRLPRPRPRPFTFPRP, the “shrunken log2 fold change” value is -0.148.
